Assay results taken from patent US6579848B1, “Depigmenting activity of agouti signal protein and peptides thereof” (The United States of America as represented by the …, priority 1995, dated 2003).

Legend:
TRP2 = assay: Northern blotting of TRP2 RNA in melan-a cells; type: cell-based, murine
Description: These techniques were performed as described previously (Aroca et al., 1993). Briefly, 2.0 μg of mRNA, isolated using a total RNA isolation kit and mRNA purification kit (Promega, Madison, Wis.), were electrophoresed and then blotted to Sure-Blot nylon membranes (Oncor, Gaithersburg, Md.), hybridized with ^32P-labeled probes, dehybridized and rehybridized with other probes again as necessary. TYRS-J, the probe specific for tyrosinase, was kindly provided by Drs. H. Yamamoto and T. Takeuchi, Sendai, Japan and is described in Yamamoto et al Japan J. Genetics Vol 62:271-274, 1987. pMT4, specific for TRP1, was provided by Dr. S. Shibahara, Sendai, Japan and is described in Shibahara, S. et al Nucleic Acid Res. Vol 14:2413-2427, 1986. TRP2a, specific for TRP2 was provided by Dr. I. Jackson, Edinburgh, Scotland and is described in Jackson, I et al. EMBO Vol 11:527-535, 1992. gp100, specific for silver, was provided by Dr. Y. Kawakami, Bethesda, Md. and is described in Kawakami et al PNAS, Vol. 91, 6458-6462, 1994.
(§1) Recombinant agouti protein was purified from baculovirus system by Dr. Michael Ollmann in Dr. Gregory Barsh's laboratory by methods known in the art. 2×10^6 cells were seeded per 15 cm diameter dish. The medium was changed everyday, and fresh agouti protein and/or αMSH added everyday usually at 10 nM. To examine transcriptional regulation, total RNA was isolated and Northern blotting performed by methods described in Example 1. The A26 probe to the MSH-R was provided by Dr. R. Cone and is described in Mountjoy et al. Science 257:1248-1251, 1992. At the translational level, metabolic labeling was used in conjunction with immunoprecipitation as described in Example 1. Western blotting and enzyme assay was used to examine function.
The effects of agouti protein on expression of TRP1, TRP2, and the MSH receptor were examined.
Total RNA was extracted from cells using an RNeasy total RNA isolation kit (QIAGEN, Catsworth, Calif.), following the manufacturer's instructions. […]

melan-a cells = assay: Pigmentation and ultrastructure of melan-a cells; type: cell-based, murine
Description: Cells were harvested, centrifuged for 5 minutes at 14,000 g at 4° C., and fixed for 2 hours at 23° C. in 2% glutaraldehyde-2% paraformaldehyde in 0.1 M sodium cacodylate buffer, pH 7.3; the fixative was then removed and the samples were stored in phosphate-buffered saline containing 2% sucrose at 4° C. Samples were subsequently processed with graded alcohols and embedded in epoxy resin for electron microscopy in the usual manner. Thin sections were stained with uranyl acetate and lead citrate, viewed and photographed with a Zeiss EM10 electron microscope, as previously detailed (Prota et al., 1995).

tyrosinase = assay: Northern blotting of tyrosinase RNA in B16F10 melanoma cells; type: cell-based; conditions: B16F10 murine melanoma cells, 10 nM, 5 days
Description: (§2) The melan-a melanocyte cell line was used as described in Example 1. This clonal line was derived from C57B1 nonagouti black mice. The growth medium was minimum essential medium containing 200 nM TPA. B16F10 melanoma cells were also used to compare the effect of agouti protein with melan-a. These cells were grown in Dulbecco's modified Eagle medium.
as §1
(§3) The effect of agouti protein and MSH observed for melan-a cells was confirmed using B16F10 murine melanoma cells. Similar effects were observed (FIG. 13).

MSH receptor = assay: Northern blotting of MSH receptor RNA in B16F10 melanoma cells; type: cell-based; conditions: B16F10 murine melanoma cells, 10 nM, 5 days
Description: as §2, §1, §3

MC1-R = assay: Inhibition of activation of the MC1-R; type: biochemical; conditions: preparation ≧90% pure
Description: (§4) Recombinant mouse ASP was generated and purified using a baculovirus expression system as described in Ollmann et al. (in preparation). […] The experiment described in FIG. 2 has also been repeated with an ASP preparation ≧99% pure with virtually identical results.

[1] = Retention of activity at 37° in water or tissue culture media; type: physicochemical
Description: as §4

[2] = test system: melan-a murine melanocytes; assay: Chemical analysis of eumelanin and pheomelanin contents of melan-a melanocytes; type: cell-based; conditions: black melan-a murine melanocytes in vitro
Description: Chemical degradation and analysis of eumelanin and pheomelanin contents were performed and quantitated as previously reported (Ito and Fujita, 1985).

Row | Molecule | increase in TRP2 RNA level (TRP2; 10 nM, 5 days) | RNA level of TRP2 (TRP2; 10 nM, 5 days) | level of TRP2 RNA (TRP2; 24 hours, different concentrations) | pigmentation of the cells (melan-a cells; black melan-a murine melanocytes in vitro) | amount of melanosomes (ultrastructural study) (melan-a cells; melan-a cells, 10 nM, 5 days) | melanosome structure (ultrastructural study) (melan-a cells; melan-a cells, 10 nM, 5 days) | color of cell pellet (melan-a cells; melan-a cells, 10 nM, 5 days incubation) | tyrosinase RNA (tyrosinase) | MSH receptor expression (MSH receptor) | Ki (MC1-R) | time for which activity is retained [1] | eumelanin production [2] | synthesis of pheomelanin [2]
1 | α-melanocyte stimulating hormone [MSH, reference compound] | 50% |  |  |  |  |  |  |  |  |  |  |  | 
2 | agouti protein: Recombinant murine agouti signal protein purified from a baculovirus expression system (protein) MDVTRLLLATLVSFLCFFTVHSHLALEETLGDDRSLRSDSSMNSLDFSSVSIVALNKKSKKISRKEAEKRKRSSKKKASMKKVARPPPPSPCVATRDSCKPPAPACCDPCASCQCRFFGSACTCRVLNPNC |  | nearly a fivefold decrease | reduced, but not to the same extent as tyrosinase RNA | markedly inhibited | decreased | pheomelanosome-like structures were found | changed from black to light brown | did not reduce tyrosinase RNA below baseline | elevated | 0.22 nM | more than 48 hours | significantly decreased | increased
